The text below walks through data of patent US20160280792A1 (Kyowa Kirin, published 2016).

The target in test [1] is T1, IL-3Rα/GM-CSFRα chimeric protein, region 3 (91-STWILFPE-98) of IL-3Rα replaced by GM-CSFRα sequence, on … (human, UniProt P26951 19-378).
T1 construct: also called Region 3 (A)
T1 chain: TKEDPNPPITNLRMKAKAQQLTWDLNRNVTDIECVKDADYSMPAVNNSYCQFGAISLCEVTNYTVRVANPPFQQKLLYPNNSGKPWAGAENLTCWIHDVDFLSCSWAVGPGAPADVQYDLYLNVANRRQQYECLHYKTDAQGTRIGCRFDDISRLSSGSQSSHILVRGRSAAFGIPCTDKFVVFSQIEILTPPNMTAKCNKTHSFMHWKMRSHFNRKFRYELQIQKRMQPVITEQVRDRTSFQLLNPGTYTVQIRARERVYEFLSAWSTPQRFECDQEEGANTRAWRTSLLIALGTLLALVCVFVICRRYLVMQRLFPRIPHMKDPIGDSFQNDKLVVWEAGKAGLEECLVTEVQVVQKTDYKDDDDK
In words: flow cytometry, labelled antibody at 1 µg/ml, HEK293T cells expressing the construct. Background: A flow cytometer gives signals particle by particle.

Test [2] addresses T2, soluble form of human IL-3Rα protein (extracellular region with C-terminal FLAG tag) (human, UniProt P26951 19-305).
T2 construct: Made in CHOras1 cells, purified on anti-FLAG gel; also called soluble form of IL-3Rα protein; soluble form of human IL-3Rα extracellular region
T2 sequence: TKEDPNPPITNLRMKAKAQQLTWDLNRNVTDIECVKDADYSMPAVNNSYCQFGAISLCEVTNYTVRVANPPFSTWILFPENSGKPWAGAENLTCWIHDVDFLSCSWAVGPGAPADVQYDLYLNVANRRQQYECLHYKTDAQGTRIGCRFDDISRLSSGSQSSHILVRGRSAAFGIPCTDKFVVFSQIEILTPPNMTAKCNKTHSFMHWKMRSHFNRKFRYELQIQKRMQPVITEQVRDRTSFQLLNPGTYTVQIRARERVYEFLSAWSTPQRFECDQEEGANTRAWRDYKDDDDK
In words: SPR (Biacore 2000): antibody captured on anti-human antibody CM5 chip, soluble IL-3Rα as analyte, 1:1 Langmuir fit. The procedure: Specifically, CM5 (research grade) was used for a sensor tip (each GE). Firstly, the CM5 tip was activated by applying an equivalent mixture of 400 mM EDC (N-ethyl-N′-(3-dimethylaminopropyl)carbodiimidehydrochloride) and 100 mM NHS (N-hydroxysuccinimide) to the CM5 tip. Next, an antibody to the human antibody attached to the Human Antibody Capture Kit (GE) (hereinafter, referred to as anti-human antibody antibody) was diluted with the solution attached to the kit and applied thereto, thereby immobilizing the required amount of the anti-human antibody antibody to the CM5 tip. Regarding the mouse antibody to be used as a control, an antibody to the mouse antibody attached to the Mouse Antibody Capture Kit (GE) (hereinafter, referred to as anti-mouse antibody antibody) was diluted with the solution attached to the kit and applied thereto, thereby immobilizing a necessary amount thereof to the CM5 tip. Next, the surface of the activated tip was blocked and inactivated by applying 1 M of ethanolamine dihydrochloride thereto. By the above steps until this, preparation of a CM5 sensor tip which can measure the dissociation constant KD was completed.
Next, each of anti-IL-3Rα antibodies, was diluted to give a concentration of 5 μg/ml with HBS-FP buffer (GE) one kind per one flow cell and applied, thereby allowing it to bind to the immobilized anti-human antibody antibody or anti-mouse antibody antibody. Next, the soluble form of IL-3Rα protein was applied thereto. In order to dissociate the bound anti-IL-3Rα antibody and soluble form of IL-3Rα protein, 3 M MgCl₂ attached to Human Antibody Capture Kit or pH 1.7 of Glycine-HCl attached to Mouse Antibody Capture Kit was applied in the amount attached to the kit. The steps until this were regarded as one step. By repeating the same steps using two or more concentrations of the soluble form of IL-3Rα protein, data for calculating association and dissociation constants (sensorgram) were obtained.
In the analysis, Biaevaluation software (GE) was used and Biaevaluation Software Handbook was referred. Specifically, by carrying out simultaneous analysis of kinetics analysis, employing basically the 1:1 Langmuir binding reaction model and fitting, association rate constant (Ka) and dissociation rate constant (Kd) were calculated, and the value of dissociation constant KD was calculated by the calculation of Kd/Ka.
In general terms: In SPR one partner is held on a chip, and binding of the other changes the refractive index at the surface.

B1: Old19 anti-human IL-3Rα human antibody (antibody, human IgG1, V domains shown)
VH: QVQLVQSGAEVKKPGSSVKVSCKASGGTFSSYAISWVRQAPGQGLEWVGGIIPIFGTANYAQKFQGRVTITADESTSTAYMELSSLRSEDTAVYYCARGHKYGPYYFDYWGQGTLVTVSS
VL: DIQMTQSPSSLSASVGDRVTITCRASQGISSWLAWYQQKPEKAPKSLIYAASSLQSGVPSRFSGSGSGTDFTLTISSLQPEDFATYYCQQYNSYPRTFGQGTKVEIK
notes: Human antibody; recombinant form in N5KG1-Val Lark vector (human IgG1, kappa)
As a reminder, the Kd is the concentration at which binding is half-saturated. A low value points to a tighter complex. In the case of B1, the binding result in test [1] was “no binding (tested: 1 µg/ml)”. The Kd in test [2] was 3.24 nM.
